In US20230071422A1 (BEIJING WISDOMAB BIOTECHNOLOGY, published 2023):

How the values were obtained:
[1] = target: T1, CD123 on the surface of CD123-positive cells (KG-1a, MV-4-11) (human, UniProt P26951 19-378); assay: flow cytometry on MV-4-11 cells, titration from 100 nM, goat anti-human IgG-FITC
T1 construct: whole, on cells; Endogenous CD123 on KG-1a (human acute myeloid leukemia) and MV-4-11 (human acute monocytic leukemia) cells; also called cell surface CD123 antigen; CD123 on the surface of MV-4-11 cells
Procedure: MV-4-11 cells at the logarithmic phase of growth were used and resuspended to 2×10⁶ […] with PBS buffer containing 1% BSA after centrifugation. MV-4-11 cells were plated in a 96-well V-bottom plate at 100 μL/well, and the supernatant was removed after centrifugation. […] The antibodies were added to the wells containing cells and incubated at 4° C. for 1 hour. Then, the plate was washed three times with 200 μL PBS buffer. The goat anti-human IgG-FITC secondary antibody (ZF-0308, ZSGB-BIO) was added to the wells (100 μL/well), and incubated at 4° C. for 30 minutes in the dark. Then, the cells were washed three times with 200 μL of PBS buffer, and resuspended in 100 μL of PBS buffer to detect FITC channel by flow cytometer (ACEA, Novocyte).

[2] = target: T2, extracellular region of human CD3E with C-terminal His tag (hCD3E-his) (human (Homo sapiens), UniProt P07766 23-126); assay: SPR, Biacore X100; antibody captured by anti-human IgG (Fc), hCD3E-his as analyte, 1:1 model
T2 construct: Recombinant, expressed in HEK293 cells
Procedure: (§1) The chip surface was regenerated by injecting 3M MgCl₂ solution at 10 μL/min for 30 s. Association rates (Kₒₙ) and dissociation rates (Koff) were calculated from association and dissociation sensorgrams fitted by a 1:1 binding model using Biacore X100 evaluation software version 2.0.1. The dissociation equilibrium constant (KD) was calculated as the ratio Koff/Kₒₙ.

[3] = target: T3, extracellular region of cynomolgus monkey CD3E with C-terminal His tag (mfCD3E-his) (cynomolgus monkey (Macaca fascicularis), UniProt Q95LI5 22-117); assay: SPR, Biacore X100; antibody captured by anti-human IgG (Fc), mfCD3E-his as analyte, 1:1 model
T3 construct: Recombinant, expressed in HEK293 cells
T3 sequence: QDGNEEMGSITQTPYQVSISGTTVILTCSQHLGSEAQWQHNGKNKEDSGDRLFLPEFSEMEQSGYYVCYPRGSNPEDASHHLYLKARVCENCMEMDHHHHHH
Procedure: as §1

[4] = target: T4, extracellular region of human CD123 subtype 1 with C-terminal His tag (hCD123-SP1-his) (human (Homo sapiens), UniProt P26951 19-305); assay: SPR, Biacore X100; antibody captured by anti-human IgG (Fc), hCD123-SP1-his as analyte, 1:1 model
T4 construct: Recombinant, expressed in HEK293 cells
T4 sequence: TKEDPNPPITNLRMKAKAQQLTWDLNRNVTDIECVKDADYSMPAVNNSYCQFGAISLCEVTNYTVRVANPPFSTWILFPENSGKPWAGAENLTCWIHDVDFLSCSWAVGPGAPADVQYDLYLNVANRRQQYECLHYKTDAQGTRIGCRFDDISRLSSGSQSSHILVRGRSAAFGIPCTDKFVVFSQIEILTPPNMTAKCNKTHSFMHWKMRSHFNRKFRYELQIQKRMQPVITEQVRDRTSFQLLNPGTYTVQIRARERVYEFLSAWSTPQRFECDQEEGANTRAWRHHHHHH
Procedure: The affinity of anti-CD123 antibodies was determined by surface plasmon resonance using Biacore X100. Related reagents and consumables such as Amino Conjugation Kit (BR-1000-50), Human Antibody Capture Kit (BR-1008-39), CM5 Chip (BR100012) and 10×HBS-EP (BR100669) buffer with pH 7.4 were all purchased from GE healthcare. According to the instructions in the kits, 1-Ethyl-3-(3-dimethylaminopropyl) carbodiimide hydrochloride (EDC) and N-Hydroxysuccinimide (NHS) was used to activate the surface of the carboxylated CM5 chip, and the anti-human IgG (Fc) antibody (capture antibody) was diluted to 25 μg/mL with 10 mM, pH5.0 sodium acetate, followed by an injection with a flow rate at 10 μL/min to achieve a coupling volume of approximately 10,000 response units (RU). Following the injection of the capture antibody, 1 M ethanolamine was injected to block unreacted groups. […] The chip surface was regenerated by injecting 3M MgCl₂ solution at 10 μL/min for 30 s. Association rates (Kₒₙ) and dissociation rates (Koff) were calculated from association and dissociation sensorgrams fitted by a 1:1 binding model using Biacore X100 evaluation software version 2.0.1. The dissociation equilibrium constant (KD) was calculated as the ratio Koff/Kₒₙ.

T2 sequence (P07766 other isoform, or with tags, fused parts or gaps limits assumed): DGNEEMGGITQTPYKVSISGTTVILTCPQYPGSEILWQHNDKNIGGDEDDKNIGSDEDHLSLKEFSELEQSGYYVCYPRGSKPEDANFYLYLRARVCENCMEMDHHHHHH

Kd [1]: 7.08 nM
Kd [2]: 14.1 nM
koff [2]: 0.000797 s⁻¹
kon [2]: 56500 M⁻¹ s⁻¹
Kd [3]: 11.5 nM
koff [3]: 0.00157 s⁻¹
kon [3]: 137000 M⁻¹ s⁻¹
Kd [4]: 0.178 nM
koff [4]: 4.02e-05 s⁻¹
kon [4]: 225000 M⁻¹ s⁻¹
B1: bispecific antibody CD3E×CD123 (bispecific antibody, human IgG1, kappa)
heavy 1: EVQLVESGGGLVQPGGSLRLSCAASGFTFSNAWMHWVRQAPGKGLEWVGQIKDKSNNYATYYADAVKGRFTISRDDSKNSLYLQMNSLKTEDTAVYYCRYVHYGVRFFYTMDVWGQGTTVTVSSASTKGPSVFPLAPSSKSTSGGTAALGCLVKDYFPEPVTVSWNSGALTSGVHTFPAVLQSSGLYSLSSVVTVPSSSLGTQTYICNVNHKPSNTKVDKRVEPKSCDKTHTCPPCPAPEFEGGPSVFLFPPKPKDTLMISRTPEVTCVVVDVSHEDPEVKFNWYVDGVEVHNAKTKPREEQYNSTYRVVSVLTVLHQDWLNGKEYKCKVSNKALPASIEKTISKAKGQPREPQVYTLPPCREEMTKNQVSLWCLVKGFYPSDIAVEWESNGQPENNYKTTPPVLDSDGSFFLYSKLTVDKSRWQQGNVFSCSVMHEALHNHYTQKSLSLSPGK
heavy 2: QVQLVQSGAEVKKPGASVKVSCKASGYTFTSYDVSWVRQAPGQRLEWMGWVYPVDGSTKFNEKFKGRVTLTADRSSSTAYMELSSLRSEDTAVYYCARLTYGDFGDAMDYWGQGTLVTVSSASTKGPSVFPLAPSSKSTSGGTAALGCLVKDYFPEPVTVSWNSGALTSGVHTFPAVLQSSGLYSLSSVVTVPSSSLGTQTYICNVNHKPSNTKVDKRVEPKSCDKTHTCPPCPAPEFEGGPSVFLFPPKPKDTLMISRTPEVTCVVVDVSHEDPEVKFNWYVDGVEVHNAKTKPREEQYNSTYRVVSVLTVLHQDWLNGKEYKCKVSNKALPASIEKTISKAKGQPREPQVCTLPPSREEMTKNQVSLSCAVKGFYPSDIAVEWESNGQPENNYKTTPPVLDSDGSFFLVSKLTVDKSRWQQGNVFSCSVMHEALHNHYTQKSLSLSPGK
light: DIVMTQTPLSLSVTPGQPASISCKSSQSLVHSNDNTYLTWYLQKPGQSPQLLIYKVSNRFSGVPDRFSGSGSGTDFTLKISRVEAEDVGVYYCGQGTQYPFTFGQGTKLEIKRTVAAPSVFIFPPSDEQLKSGTASVVCLLNNFYPREAKVQWKVDNALQSGNSQESVTEQDSKDSTYSLSSTLTLSKADYEKHKVYACEVTHQGLSSPVTKSFNRGEC
notes: also called CD3×CD123 BsAb; CD3E×CD123 BsAb
